System: MS2 coat protein
Test: apparent KD of MS2 coat protein; designed switch direction (-1 OFF switch, 1 ON switch): 1; higher = weaker reporter binding
In short: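 For each design, the apparent KD is the median over clusters of curves fitted to normalised cluster fluorescence. Clusters held RNA switches with common flanks, transcribed on Illumina chips by stalled E. coli RNA polymerase. These were titrated with SNAP-549-labelled MS2 coat protein, doubling from 0.7 or 1.5 nM to 3 µM, without input, with 200 uM small-molecule ligand, or with an oligonucleotide input.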

[1] = input ligand: microRNA oligo, concentration not stated
[2] = Eterna round: R95, input ligand: FMN 200 uM
[3] = Eterna round: R95, input ligand: microRNA oligo, concentration not stated
[4] = Eterna round: R95, input ligand: none

Sequence: UCGGGCGUACUUGCUGACAUGAGGAUCACCCAUGUCCUUGGACAGGAUAUGGUUCCGUUUCGGUUCCAGAAGGUCCUGGCUGCU [salish99_SSNG3_r04_320] (Eterna round: R96, puzzle: Same State NG 3)
- apparent KD of MS2 coat protein (input ligand: FMN 200 uM): 31.8 nM
- apparent KD of MS2 coat protein [1]: 25.5 nM
- apparent KD of MS2 coat protein (input ligand: none): 40.9 nM

Sequence: AAAGUACAUGAGGAUCACCCAUGUAAAAGACUCACAGGAUAUGCUUCUUGUGUACAAGCUGCAGAAGGGUGAAAAG [Oraes] (puzzle: Same State 1)
- apparent KD of MS2 coat protein [2]: 30.8 nM
- apparent KD of MS2 coat protein [3]: 55.9 nM
- apparent KD of MS2 coat protein [4]: 107 nM

Sequence: GCUACAUGAGGAUCACCCAUGUGUGCGUGGGAGUGAGUGGCUUAGGAUAUCUAUGACUUUAGUUGAGAGAAGGAGGAUUGCUGU [SS-NG3-LRO11] (Eterna round: R96, puzzle: Same State NG 3)
- apparent KD of MS2 coat protein (input ligand: FMN 200 uM): 190 nM
- apparent KD of MS2 coat protein [1]: 105 nM
- apparent KD of MS2 coat protein (input ligand: none): 173 nM

Sequence: AAUUAAUUAAUUAAGUACAUGAGGAUCACCCAUGUAAGUGAUCAGGAUAUCAGCUCGAAUAGAGCUGAGAAGGGAUCCAUGUAC [SSNG3/15-A1] (Eterna round: R96, puzzle: Same State NG 3)
- apparent KD of MS2 coat protein (input ligand: FMN 200 uM): 332 nM
- apparent KD of MS2 coat protein [1]: 322 nM
- apparent KD of MS2 coat protein (input ligand: none): 375 nM

Sequence: GAGUAGUUGAAAGGAUAUGCAUUGUUAUAGAAUGCAGAAGGUUCUAACAUGAGGAUCACCCAUGUAGGACUAUUCCUGUGUAUC [Parity 80 - Jieux - Same State NG 1] (Eterna round: R96, puzzle: Same State NG 1)
- apparent KD of MS2 coat protein [1]: 7.83 nM

Sequence: GCCGCGUUUCGCGCCUACAUGAGGAUCACCCAUGUUUGUAGGCAGGAUAUCGCCCGCUUUGCGGGCGAGAAGGGCUGUUGUGGC [salish99_SSNG3_R04_020] (Eterna round: R96, puzzle: Same State NG 3)
- apparent KD of MS2 coat protein (input ligand: FMN 200 uM): 59 nM
- apparent KD of MS2 coat protein [1]: 38.8 nM
- apparent KD of MS2 coat protein (input ligand: none): 55.5 nM

Sequence: GGUAUGGACACAGGAUAUGCUUACGAAACGUAAGCAGAAGGGUGAACAUGAGGAUCACCCAUGUACGUGCCAGGGCGUGAGCCC [JL SSNG1 1.77] (Eterna round: R96, puzzle: Same State NG 1)
- apparent KD of MS2 coat protein (input ligand: FMN 200 uM): 1420 nM
- apparent KD of MS2 coat protein [1]: 29.8 nM
- apparent KD of MS2 coat protein (input ligand: none): 920 nM

Sequence: UUUAGUUGCGGGCAGGAUAUGUAUUAAAAUACAUGAGGAUCACCCAUGUGCGGGUAUAACACCCGGCAGAAGGGCCAAUCGCGAC [Laonerce - 3] (puzzle: Same State 2)
- apparent KD of MS2 coat protein [2]: 34.2 nM
- apparent KD of MS2 coat protein [3]: 191 nM
- apparent KD of MS2 coat protein [4]: 296 nM

Sequence: GAAUAACAUGAGGAUCACCCAUGUAAUAUAAUGGGAGGAUAUCUGAAUUAAUUAUAUUAAGGAGAAGGCCUAUAUG [Mat - Same State 1 - Mod of Eli - D54] (puzzle: Same State 1)
- apparent KD of MS2 coat protein [2]: 51.6 nM
- apparent KD of MS2 coat protein [3]: 204 nM
- apparent KD of MS2 coat protein [4]: 260 nM

Sequence: AGGACGAGCACAGGAUAUCCGUGGAACAGACACGGAGAAGGGUGAAGUCAUGGAAAGAAAAGACAUGAGGAUCACCCAUGUAAA [Eszaonin] (Eterna round: R96, puzzle: Same State NG 1)
- apparent KD of MS2 coat protein (input ligand: FMN 200 uM): 132 nM
- apparent KD of MS2 coat protein [1]: 61.3 nM
- apparent KD of MS2 coat protein (input ligand: none): 310 nM

Sequence: GGUAUUGACACAGGAUAUGCUUACGAAACGUAAGCAGAAGGGUGAACAUGAGGAUCACCCAUGUAUGUACCAGGGCGUGAGCCC [JL SSNG1 1.74] (Eterna round: R96, puzzle: Same State NG 1)
- apparent KD of MS2 coat protein (input ligand: FMN 200 uM): 169 nM
- apparent KD of MS2 coat protein [1]: 875 nM
- apparent KD of MS2 coat protein (input ligand: none): 1880 nM

Sequence: AAAAGACAUGAGGAUCACCCAUGUAAAAACAUAGGAGGAUAUGUCAUGAAAAAAGACUUGACAGAAGGCCUUUGUC [SS1 - 49] (Eterna round: R96, puzzle: Same State 1)
- apparent KD of MS2 coat protein [1]: 156 nM

Sequence: GCCGCGUUUCGCGCCUACAUGAGGAUCACCCAUGUUUGUAGGCAGGAUAUCGUCCGCUCUGCGGGCGAGAAGGGCUGUUGUGGG [salish99_SSNG3_R04_023] (Eterna round: R96, puzzle: Same State NG 3)
- apparent KD of MS2 coat protein (input ligand: FMN 200 uM): 214 nM
- apparent KD of MS2 coat protein [1]: 139 nM
- apparent KD of MS2 coat protein (input ligand: none): 179 nM

Source: the supplement of paper PMC9170038
